Measurements taken from PMC11429574, “Biophysical and Solution Structure Analysis of Critical Residues Involved in the Interaction between the PupB N-Terminal Signaling Domain and PupR C-Terminal Cell Surface Signaling Domain from Pseudomonas capeferrum” (Biomolecules, 2024).
Where a chain is given by its changes, count along the chain named. Names may count otherwise.

T1: PupB N-terminal signaling domain H72D (Pseudomonas capeferrum), P38047
T1 chain: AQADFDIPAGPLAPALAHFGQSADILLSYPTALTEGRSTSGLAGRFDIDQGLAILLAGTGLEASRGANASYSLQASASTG

B1: PupB N-terminal signaling domain Q69K (domain or fragment, Pseudomonas capeferrum)
chain: T1 chain with Q21K, D24H
notes: PupB of Pseudomonas capeferrum, N-terminal signaling domain, 82 residues; also called PupB NTSD Q69K; Q79K (misprint in two places); source: pET41 GST-PupB NTSD plasmid
B2: MBP-PupR C-terminal cell surface signaling domain (domain or fragment, Pseudomonas capeferrum)
chain: QDWRADYHSRIGEQRRLTLADGTQVQLNTDSALNVAFDQQARRLRLVRGEMLITRPALADSRPLWVDTEHGRLESTLAQFNVRLHGQHTQATVYQGSVALQPALHAYPPILLGAGEQASFNQQGLLARQAVAAVAPAWSQGMLVAQGQPLAAFIEDLARYRRGHLACDPALAGLRVSGTFPLENTDKIIAAVAETLQLEVQHFTRYWVTLKPRMA
notes: PupR, inner membrane sigma regulator (anti-sigma factor) of Pseudomonas capeferrum; periplasmic C-terminal cell surface signaling domain; residues A240 to A300 are named as interface residues; A TEV site lies between MBP and the domain; the MBP fusion was used uncleaved in the ITC for solubility and stability; also called MBP-PupR CCSSD; PupR CCSSD; not shown: MBP, N-terminal, kept

Key:
Assay in all cases: ITC; MBP-PupR CCSSD (140-230 µM) titrated into PupB NTSD mutants (20-70 µM); 15 °C; 25 mM HEPES pH 7.5, 400 mM LiCl, 10% glycerol; triplicate, global single-site analysis (NITPIC, SEDPHAT)
[1] = target: B2; settings: both partners purified
[2] = target: B1; settings: both partners purified
[3] = target: T1, PupB N-terminal signaling domain H72D …; settings: remark: other sources report otherwise

Kd [1] [µM]	dH [2] [kcal/mol]	Kd [3] [µM]	dH [3] [kcal/mol]	Binder
1.55				B1
	-14.5	27.7	-23	B2
